Consider 167 variants from the RNAGym collection of RNA variant scans (doi:10.7554/elife.80360).

The labels stand for the following.
B1: CPEB3 Ribozyme (parent)
chain: GGGGGCCACAGCAGAAGCGUUCACGUCGCGGCCCCUGUCAGAUUCUGGUGAAUCUGCGAAUUCUGCUGU

This data set covers variants of B1. Description: self-cleavage, relative activity (ratio to wild type); higher = more cleavage; co-transcriptional.
As for C6A C27U, the self-cleavage came out at 0.159.

As to C6A C27G, the self-cleavage was determined as 0.122.

C6A C27A: the self-cleavage was found to be 0.154.

In the case of G5U U44G, the self-cleavage came to 0.0852.

In the case of G5U U44C, the self-cleavage is 0.192.

With G5U U44A, the self-cleavage came out at 0.125.

Take C6G A23C: the self-cleavage turned out to be 0.302.

For the variant G5U G30U, the self-cleavage amounted to 0.0993.

Take G5U G30C: the self-cleavage stood at 0.08.

On to G5U U43G, for which the self-cleavage is 0.161.

As for C6A A40G, the self-cleavage turned out to be 0.426.

On to C6A A40U, for which the self-cleavage was found to be 0.346.

As to C6A A40C, the self-cleavage was determined as 0.177.

Regarding G5U G31A, the self-cleavage worked out at 0.132.

With G5U G31C, the self-cleavage was 0.0656.

Regarding C6A C54U, the self-cleavage is 0.67.

As to C6G C24U, the self-cleavage was 0.193.

Regarding C6G C24A, the self-cleavage worked out at 0.0804.

C6G C24G: the self-cleavage came out at 0.085.

Regarding C6G U61C, the self-cleavage amounted to 0.0649.

As to C6G G19C, the self-cleavage was 0.0471.

As to C6G G19U, the self-cleavage was determined as 0.0686.

With C6G G19A, the self-cleavage is 0.0949.

For the variant G5U C63A, the self-cleavage came out at 0.114.

As to G5U C63U, the self-cleavage stood at 0.24.

Consider G5U C63G, for which the self-cleavage amounted to 0.0897.

In the case of C6A U61G, the self-cleavage came out at 0.242.

Take C6A U61C: the self-cleavage stood at 0.15.

Consider C6G G17C, for which the self-cleavage is 0.0719.

As to C6G G17A, the self-cleavage amounted to 0.0588.

In the case of C6G G17U, the self-cleavage came to 0.0809.

For the variant C6G C9G, the self-cleavage came out at 0.445.

C6G C9A: the self-cleavage worked out at 0.651.

For the variant C6A A10C, the self-cleavage was 0.67.

As for C6A A10G, the self-cleavage turned out to be 0.798.

As to C6A A10U, the self-cleavage was determined as 0.903.

On to C6G U38C, for which the self-cleavage was found to be 0.227.

As to C6G U38A, the self-cleavage is 0.248.

With C6A G30A, the self-cleavage came out at 0.338.

For the variant C6A G30U, the self-cleavage came out at 0.157.

Regarding C6A C24A, the self-cleavage is 0.162.

C6A C24G: the self-cleavage was determined as 0.0842.

With C6G C35U, the self-cleavage stood at 0.15.

Consider C6G C35A, for which the self-cleavage was found to be 0.0719.

Turning to C6A G14U, the self-cleavage amounted to 0.116.

With C6A G14C, the self-cleavage was 0.101.

With C6A G14A, the self-cleavage worked out at 0.128.

For the variant G5U C39U, the self-cleavage is 0.101.

As to C6G U20A, the self-cleavage was determined as 0.0487.

As for G5U G25U, the self-cleavage was 0.0766.

For the variant G5U G25A, the self-cleavage was 0.0881.

With G5U G25C, the self-cleavage stood at 0.0917.

For C6A C45G, the self-cleavage was 0.595.

Take C6A C45U: the self-cleavage worked out at 0.708.

On to C6G A52G, for which the self-cleavage turned out to be 0.343.

For the variant C6G A52C, the self-cleavage was 0.264.

Take C6A G47C: the self-cleavage was 0.689.

For the variant C6A G47A, the self-cleavage was 0.712.

As to C6A G47U, the self-cleavage was 0.661.

As to C6A C63A, the self-cleavage is 0.237.

As for C6G C63G, the self-cleavage came to 0.149.

For the variant C6G C63A, the self-cleavage turned out to be 0.185.

On to C6G C63U, for which the self-cleavage turned out to be 0.262.

With C6G C29U, the self-cleavage came to 0.0888.

C6G C29G: the self-cleavage amounted to 0.0434.

As to C6A C39U, the self-cleavage came to 0.416.

Turning to C6A C39A, the self-cleavage stood at 0.231.

In the case of G5U C45A, the self-cleavage was 0.208.

For G5U C45U, the self-cleavage is 0.291.

As to C6G G28U, the self-cleavage is 0.0241.

As for C6A C66G, the self-cleavage was 0.44.

In the case of C6A C66A, the self-cleavage turned out to be 0.386.

Turning to C6A C66U, the self-cleavage was found to be 0.641.

In the case of C6A A51C, the self-cleavage came to 0.458.

For the variant C6A A51U, the self-cleavage turned out to be 0.545.

On to C6A A51G, for which the self-cleavage turned out to be 0.604.

As to C6G A60U, the self-cleavage was found to be 0.137.

Regarding C6G A60G, the self-cleavage turned out to be 0.16.

For the variant C6A U46A, the self-cleavage is 0.674.

As to C6A U46G, the self-cleavage worked out at 0.607.

Regarding C6A U46C, the self-cleavage was determined as 0.657.

On to C6A C29U, for which the self-cleavage was found to be 0.234.

Consider C6A C29A, for which the self-cleavage turned out to be 0.213.

C6A A52U: the self-cleavage is 0.559.

In the case of C6A A52G, the self-cleavage amounted to 0.58.

Turning to C6G C32A, the self-cleavage turned out to be 0.0685.

For the variant C6G C32G, the self-cleavage is 0.0963.

Take C6G C32U: the self-cleavage was found to be 0.212.

In the case of C6A C34U, the self-cleavage stood at 0.339.

Turning to G5U G68A, the self-cleavage was found to be 0.886.

For G5U G68C, the self-cleavage stood at 0.716.

As to G5U G68U, the self-cleavage was 0.793.

As for G5U G37U, the self-cleavage is 0.0584.

In the case of G5U G37C, the self-cleavage amounted to 0.119.

Take C6G G41A: the self-cleavage came out at 0.122.

For C6G G41U, the self-cleavage was 0.252.

For G5U G19C, the self-cleavage was 0.0535.

Consider G5U G19U, for which the self-cleavage was 0.0974.

On to C6G U69C, for which the self-cleavage amounted to 0.797.

Consider C6G U69A, for which the self-cleavage was found to be 0.589.

As to G5U G17C, the self-cleavage stood at 0.0663.

Regarding G5U G17U, the self-cleavage amounted to 0.0412.

In the case of G5U G17A, the self-cleavage was found to be 0.082.

For C6G A51U, the self-cleavage is 0.353.

For C6A U64A, the self-cleavage was determined as 0.307.

As to C6A U64G, the self-cleavage came to 0.469.

On to C6A G25A, for which the self-cleavage turned out to be 0.136.

In the case of C6A G25C, the self-cleavage was determined as 0.133.

In the case of C6A G25U, the self-cleavage amounted to 0.1.

As for C6A U49G, the self-cleavage is 0.5.

Regarding C6A U49C, the self-cleavage was 0.716.

Turning to C6A G19C, the self-cleavage was 0.107.

Take C6A G19A: the self-cleavage is 0.105.

On to G5U G14A, for which the self-cleavage was 0.078.

On to G5U G14U, for which the self-cleavage was 0.0546.

Consider C6G G48C, for which the self-cleavage is 0.35.

For C6G G48U, the self-cleavage is 0.391.

With G5U U64G, the self-cleavage was found to be 0.194.

Turning to G5U U64A, the self-cleavage was 0.109.

Regarding G5U U64C, the self-cleavage is 0.195.

C6A A15C: the self-cleavage turned out to be 0.235.

For C6A A60C, the self-cleavage was 0.17.

On to C6A A60G, for which the self-cleavage stood at 0.326.

On to C6A A60U, for which the self-cleavage worked out at 0.226.

With G5U C35G, the self-cleavage stood at 0.08.

As for G5U U36G, the self-cleavage stood at 0.343.

Take G5U U36A: the self-cleavage stood at 0.0704.

With C6A U38G, the self-cleavage was 0.117.

As to C6A U38C, the self-cleavage turned out to be 0.35.

As for C6A C22U, the self-cleavage amounted to 0.0847.

Turning to C6A C22A, the self-cleavage was determined as 0.165.

Regarding C6G U62A, the self-cleavage stood at 0.129.

On to C6G U62G, for which the self-cleavage is 0.0551.

On to C6A U62C, for which the self-cleavage was 0.338.

Regarding C6A A59G, the self-cleavage turned out to be 0.464.

Turning to C6G U21G, the self-cleavage worked out at 0.0354.

As for C6G U21C, the self-cleavage stood at 0.312.

Take C6A G17C: the self-cleavage amounted to 0.115.

Regarding C6A G17U, the self-cleavage stood at 0.119.

Take G5U U26A: the self-cleavage is 0.132.

For the variant G5U U26G, the self-cleavage turned out to be 0.103.

For G5U U55G, the self-cleavage stood at 0.0798.

For the variant G5U U55A, the self-cleavage amounted to 0.0876.

In the case of C6G G58U, the self-cleavage came out at 0.402.

Turning to C6G G58A, the self-cleavage was determined as 0.2.

With C6G G58C, the self-cleavage was determined as 0.294.

For C6G C33U, the self-cleavage worked out at 0.262.

C6G C33G: the self-cleavage worked out at 0.0662.

As to C6G C33A, the self-cleavage is 0.117.

With C6A C57G, the self-cleavage is 0.22.

Turning to C6A C57A, the self-cleavage stood at 0.182.

For the variant C6A C57U, the self-cleavage was 0.168.

C6G G37C: the self-cleavage amounted to 0.0619.

For C6G G37A, the self-cleavage was 0.0792.

Consider C6G C34U, for which the self-cleavage amounted to 0.304.

Regarding C6G C34G, the self-cleavage turned out to be 0.0582.

For G5U U53G, the self-cleavage turned out to be 0.152.

In the case of C6A C35A, the self-cleavage was 0.114.

With G5U G50U, the self-cleavage came out at 0.313.

In the case of G5U G50C, the self-cleavage was determined as 0.341.

With C6G U43C, the self-cleavage came out at 0.39.

For the variant C6A U20C, the self-cleavage amounted to 0.204.

C6A U20A: the self-cleavage worked out at 0.0587.

For C6A G58U, the self-cleavage worked out at 0.695.

Consider C6A G58A, for which the self-cleavage stood at 0.443.

On to C6A A42C, for which the self-cleavage was 0.221.

For the variant C6A A42G, the self-cleavage was 0.609.
